Test results as given in patent US20180155451A1 (published 2018).

T1: FcgRIIa H type extracellular domain, C-terminal His tag (human, UniProt P12318 34-217)
T1 construct: extracellular domain; also called FcγRIIa H; 2aH; not shown: His tag attached to the C terminus
T1 sequence (looked up): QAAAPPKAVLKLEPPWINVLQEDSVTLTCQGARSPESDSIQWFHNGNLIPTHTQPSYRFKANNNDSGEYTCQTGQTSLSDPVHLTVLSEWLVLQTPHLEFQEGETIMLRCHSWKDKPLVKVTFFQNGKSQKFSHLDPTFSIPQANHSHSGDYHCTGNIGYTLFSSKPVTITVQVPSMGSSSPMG

T2: FcgRIIa R type extracellular domain, C-terminal His tag (human, UniProt P12318 34-217)
T2 construct: extracellular domain; also called FcγRIIa R; 2aR; not shown: His tag attached to the C terminus
T2 sequence (looked up): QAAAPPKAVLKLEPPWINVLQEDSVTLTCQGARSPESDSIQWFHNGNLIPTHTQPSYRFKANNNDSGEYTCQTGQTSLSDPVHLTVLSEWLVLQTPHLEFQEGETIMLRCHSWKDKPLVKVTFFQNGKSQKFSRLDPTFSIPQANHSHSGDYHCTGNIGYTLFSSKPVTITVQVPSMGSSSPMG

T3: FcgRIIb extracellular domain, C-terminal His tag (human, UniProt P31994 43-217)
T3 construct: extracellular domain; also called FcγRIIb; 2b; not shown: His tag attached to the C terminus
T3 sequence (looked up): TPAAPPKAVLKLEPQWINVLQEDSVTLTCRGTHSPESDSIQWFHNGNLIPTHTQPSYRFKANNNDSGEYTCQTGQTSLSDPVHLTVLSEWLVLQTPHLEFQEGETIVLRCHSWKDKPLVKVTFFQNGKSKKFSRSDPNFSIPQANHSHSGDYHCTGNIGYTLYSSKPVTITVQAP


Experiments:
Test in all cases: SPR (Biacore), antibody captured on chip, FcgR extracellular domain as analyte, 25 C, 1:1 Langmuir fit; experiment #3
[1] = molecular target: T1, FcgRIIa H type extracellular domain, …
Description: (§1) Antibodies of interest were analyzed for the interaction to FcgR according to the method described in Reference Example 8.
(§2) Analysis of interaction between obj ective antibody and the FcγR was carried out using Biacore T100 (GE Healthcare), Biacore T200, Biacore A100, and Biacore 4000. HBS-EP+ (GE Healthcare) was used as the running buffer, and the measurement temperature was set to 25° C. Chips produced by immobilizing the antigen peptide by the amine coupling method to a Series S sensor Chip CM5 (GE Healthcare), chips produced by allowing preliminarily biotinylated antigen peptides to interact with and immobilize onto a Series S Sensor Chip SA (certified) (GE Healthcare), chips produced by immobilizing Protein L (ACTIGEN, BioVision) to Series S Sencor Chip CM5 (GE Healthcare), or chips produced by immobilizing Protein A/G (Thermo Scientific) to Series S Sencor Chip CM5 (GE Healthcare) were used. Antibodies of interest were captured onto these chips, and allowed to interact to each FcγR diluted with running buffer. To regenerate and repeatedly use the chip, the antibodies captured onto the chip were washed off by reacting 10 mM glycine-HCl, pH 1.5.

[2] = molecular target: T4, FcgRIIIa F type extracellular domain, C-terminal His tag (human, UniProt P08637 17-208)
T4 construct: extracellular domain; also called FcγRIIIa F; 3aF; not shown: His tag attached to the C terminus
T4 sequence (P08637 17-208): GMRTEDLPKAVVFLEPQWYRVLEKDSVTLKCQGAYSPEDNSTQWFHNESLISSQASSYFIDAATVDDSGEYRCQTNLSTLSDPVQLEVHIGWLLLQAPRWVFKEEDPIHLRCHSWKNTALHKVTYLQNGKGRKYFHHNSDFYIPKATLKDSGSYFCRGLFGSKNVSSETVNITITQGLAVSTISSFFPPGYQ
Description: as §1, §2

[3] = molecular target: T2, FcgRIIa R type extracellular domain, …
Description: as §1, §2

[4] = molecular target: T3, FcgRIIb extracellular domain, …
Description: as §1, §2

[5] = molecular target: T5, FcgRIIIa V type extracellular domain, C-terminal His tag (human, UniProt P08637 17-208)
T5 construct: extracellular domain; also called FcγRIIIa V; 3aV; not shown: His tag attached to the C terminus
T5 sequence (P08637 17-208 F176V limits assumed): as the sequence (P08637 17-208) above, with F160V counted along it
Description: as §1, §2

[6] = molecular target: T6, FcgRI extracellular domain, C-terminal His tag (human, UniProt P12314 16-292)
T6 construct: extracellular domain; also called FcγRIa; FcgRIa; not shown: His tag attached to the C terminus
T6 sequence (P12314 16-292): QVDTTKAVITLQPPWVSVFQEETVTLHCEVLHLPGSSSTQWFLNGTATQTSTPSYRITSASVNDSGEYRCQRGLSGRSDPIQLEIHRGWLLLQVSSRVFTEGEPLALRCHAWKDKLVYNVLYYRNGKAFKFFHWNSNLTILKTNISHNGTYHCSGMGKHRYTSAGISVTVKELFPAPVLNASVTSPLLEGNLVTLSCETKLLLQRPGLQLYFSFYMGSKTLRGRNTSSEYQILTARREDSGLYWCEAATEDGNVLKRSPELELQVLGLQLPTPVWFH
Description: as §1, §2

| Binder | Kd [1] [nM] | Kd [2] [nM] | Kd [3] [nM] | Kd [4] [nM] | Kd [5] [nM] | Kd [6] [nM] |
| --- | --- | --- | --- | --- | --- | --- |
| H240-FA021/H240-FB082/L73-k0 (antibody, human IgG1, kappa, Heterodimerized anti-epiregulin IgG1 antibody) heavy 1: QDQLVQSGAEVKKPGASVKVSCKASGFNIKDTYIQWVRQAPGQGLEWMGRIDPLRKQTKYREKFEGRVTITADTSTNTAYMELSSLRSEDTAVYYCVRSGREFDYWGQGTLVTVSSASTKGPSVFPLAPSSKSTSGGTAALGCLVKDYFPEPVTVSWNSGALTSGVHTFPAVLQSSGLYSLSSVVTVPSSSLGTKTYTCNVNHKPSNTKVDKKVEPKSCDKTHTCPPCPAPEYYWGPSVFLFPPKPKDTLMISRTPEVTCVVVDVSDEEPEVKFNWYVDGVEVHNAKTKPREEQYNATYRVVSVLTVLHQDWLNGKEYKCKVSNKALPAPIEKTISKAKGQPREPQVYTLPPSRKEKTKNQVSLTCLVKGFYPSDIAVEWESNGQPENNYKTTPPKLDSDGSFFLYSKLTVDKSRWQQGNVFSCSVMHEALHNRYTQKSLSLSP heavy 2: QDQLVQSGAEVKKPGASVKVSCKASGFNIKDTYIQWVRQAPGQGLEWMGRIDPLRKQTKYREKFEGRVTITADTSTNTAYMELSSLRSEDTAVYYCVRSGREFDYWGQGTLVTVSSASTKGPSVFPLAPSSKSTSGETAALGCLVEDYFPEPVTVSWNSGALTSGVHTFPAVLQSSGLYSLSSVVTVPSSSLGTQTYICNVNHKPSNTKVDKKVEPKSCDKTHTCPPCPAPELLGGPSVFLFPPKPKDTLMISRTPEVTCVVVDVSHEEPEVQFNWYVDGVEVHNAETKPREEQYNSTYRVVSVLTVLHQDWLNGKEYKCKVSNDALPMPIEETISKAKGQPREPQVYTLPPSREEMTKNQVSLTCLVKGFYPSDIAVEWESEGQPENNYKTTPPVLDSDGSFFLYSKLTVDKSRWQQGNVFSCSVMHEALHNHYTQESLSLSP light: DIQMTQSPSSLSASVGDRVTITCRASQDIHKYIAWYQQKPGQAPRLLIQYTSTLQPGVPSRFSGSGSGTDYTFTISSLQPEDIATYYCLQYEQLRTFGGGTKVEIKRTVAAPSVFIFPPSDEQLKSGTASVVCLLNNFYPREAKVQWKVDNALQSGNSQESVTEQDSKDSTYSLSSTLTLSKADYEKHKVYACEVTHQGLSSPVTKSFNRGEC | 77 | 4.2 | 230 | 1600 | 1.5 | 0.06 |
| H240-FA021/H240-FB083/L73-k0 (antibody, human IgG1, kappa, Heterodimerized anti-epiregulin IgG1 antibody) heavy 1: QDQLVQSGAEVKKPGASVKVSCKASGFNIKDTYIQWVRQAPGQGLEWMGRIDPLRKQTKYREKFEGRVTITADTSTNTAYMELSSLRSEDTAVYYCVRSGREFDYWGQGTLVTVSSASTKGPSVFPLAPSSKSTSGGTAALGCLVKDYFPEPVTVSWNSGALTSGVHTFPAVLQSSGLYSLSSVVTVPSSSLGTKTYTCNVNHKPSNTKVDKKVEPKSCDKTHTCPPCPAPEYYWGPSVFLFPPKPKDTLMISRTPEVTCVVVDVSDEEPEVKFNWYVDGVEVHNAKTKPREEQYNATYRVVSVLTVLHQDWLNGKEYKCKVSNKALPAPIEKTISKAKGQPREPQVYTLPPSRKEKTKNQVSLTCLVKGFYPSDIAVEWESNGQPENNYKTTPPKLDSDGSFFLYSKLTVDKSRWQQGNVFSCSVMHEALHNRYTQKSLSLSP heavy 2: QDQLVQSGAEVKKPGASVKVSCKASGFNIKDTYIQWVRQAPGQGLEWMGRIDPLRKQTKYREKFEGRVTITADTSTNTAYMELSSLRSEDTAVYYCVRSGREFDYWGQGTLVTVSSASTKGPSVFPLAPSSKSTSESTAALGCLVEDYFPEPVTVSWNSGALTSGVHTFPAVLQSSGLYSLSSVVTVPSSNFGTQTYTCNVDHKPSNTKVDKTVEPKSCDKTHTCPPCPAPELLGGPSVFLFPPKPKDTLMISRTPEVTCVVVDVSHEEPEVQFNWYVDGVEVHNAETKPREEQYNSTYRVVSVLTVLHQDWLNGKEYKCKVSNDALPMPIEETISKAKGQPREPQVYTLPPSREEMTKNQVSLTCLVKGFYPSDIAVEWESNGQPENNYKTTPPVLDSDGSFFLYSKLTVDKSRWQQGNVFSCSVMHEALHNHYTQESLSLSP light: DIQMTQSPSSLSASVGDRVTITCRASQDIHKYIAWYQQKPGQAPRLLIQYTSTLQPGVPSRFSGSGSGTDYTFTISSLQPEDIATYYCLQYEQLRTFGGGTKVEIKRTVAAPSVFIFPPSDEQLKSGTASVVCLLNNFYPREAKVQWKVDNALQSGNSQESVTEQDSKDSTYSLSSTLTLSKADYEKHKVYACEVTHQGLSSPVTKSFNRGEC | 69 | 3.9 | 240 | 1300 | 1.4 | 0.078 |
